Results on ten molecules are retold here after US20220389394A1 (Gilead, published 2022).

The target in experiment [1] is T1, his-tagged recombinant human Flt3 receptor (Sino Biologicals) (human, UniProt P36888 27-541, limits assumed).
T1 construct: Bought protein; also called human recombinant FLT3; not shown: His tag
T1 sequence (looked up): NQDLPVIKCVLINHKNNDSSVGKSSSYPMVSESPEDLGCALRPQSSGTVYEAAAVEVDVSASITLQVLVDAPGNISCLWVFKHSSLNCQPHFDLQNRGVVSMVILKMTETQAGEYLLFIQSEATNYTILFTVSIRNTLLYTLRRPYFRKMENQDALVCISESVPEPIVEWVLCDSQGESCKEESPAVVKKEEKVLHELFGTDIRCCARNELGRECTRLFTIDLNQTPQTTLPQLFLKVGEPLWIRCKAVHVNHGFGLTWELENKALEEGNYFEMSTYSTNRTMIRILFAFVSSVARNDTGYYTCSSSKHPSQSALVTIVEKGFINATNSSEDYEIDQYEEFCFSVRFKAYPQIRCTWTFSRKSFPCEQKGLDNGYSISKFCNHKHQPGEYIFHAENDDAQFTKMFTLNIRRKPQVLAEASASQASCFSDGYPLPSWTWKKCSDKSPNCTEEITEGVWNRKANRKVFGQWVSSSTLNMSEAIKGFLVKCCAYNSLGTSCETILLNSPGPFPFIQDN
Put plainly: ELISA; His-tagged recombinant human Flt3 on nickel plate, serially diluted Flt3L-Fc, anti-human (H+L)-HRP, 4PL fit. As for the experimental part: (§1) Graph is a result of one experiment. Experiment was performed in duplicate. Error bars represent standard deviation of the mean values.
(§2) Signal was developed using TMB substrate then quenched prior to reading absorbance at 450 nm on a SpectraMax plate reader.

The target of experiment [2] is T2, human FLT3 on the AML5 cell line (human, UniProt P36888 27-993).
T2 sequence (looked up): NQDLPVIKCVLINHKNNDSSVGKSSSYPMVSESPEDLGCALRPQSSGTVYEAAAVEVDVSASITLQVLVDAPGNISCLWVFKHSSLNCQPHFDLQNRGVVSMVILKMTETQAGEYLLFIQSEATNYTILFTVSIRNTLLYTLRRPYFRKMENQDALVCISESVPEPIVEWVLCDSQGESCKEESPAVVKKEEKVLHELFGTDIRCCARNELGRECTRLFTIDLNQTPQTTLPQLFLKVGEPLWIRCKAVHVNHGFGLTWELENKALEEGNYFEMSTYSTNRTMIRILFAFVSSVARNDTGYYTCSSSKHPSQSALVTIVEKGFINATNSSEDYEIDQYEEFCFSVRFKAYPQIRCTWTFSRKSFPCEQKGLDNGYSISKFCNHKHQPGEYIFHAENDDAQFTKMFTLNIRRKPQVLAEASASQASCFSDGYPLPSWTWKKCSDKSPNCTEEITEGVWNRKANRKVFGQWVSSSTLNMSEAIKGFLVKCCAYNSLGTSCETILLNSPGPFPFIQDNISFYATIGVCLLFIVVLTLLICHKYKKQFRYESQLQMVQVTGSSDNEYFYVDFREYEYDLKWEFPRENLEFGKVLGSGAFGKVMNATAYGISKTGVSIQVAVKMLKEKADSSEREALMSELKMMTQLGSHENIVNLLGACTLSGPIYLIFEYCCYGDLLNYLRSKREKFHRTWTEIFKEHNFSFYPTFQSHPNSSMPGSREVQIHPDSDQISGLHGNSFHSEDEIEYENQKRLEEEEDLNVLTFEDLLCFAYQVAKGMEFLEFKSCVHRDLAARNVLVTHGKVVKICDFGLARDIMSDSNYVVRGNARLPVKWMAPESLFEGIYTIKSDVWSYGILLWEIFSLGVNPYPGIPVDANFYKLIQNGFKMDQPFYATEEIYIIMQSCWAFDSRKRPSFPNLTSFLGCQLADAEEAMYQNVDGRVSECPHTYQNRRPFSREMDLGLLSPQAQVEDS
As to the kind of experiment: cell-based or functional assay.

The target in experiment [3] is T3, recombinant human FcRn (human, UniProt P55899 24-297; P61769 21-119, limits assumed).
T3 construct: a beta-2-microglobulin chain is not mentioned; also called human recombinant FcRn
T3 sequence (P55899 24-297 limits assumed, chain 1 of 2): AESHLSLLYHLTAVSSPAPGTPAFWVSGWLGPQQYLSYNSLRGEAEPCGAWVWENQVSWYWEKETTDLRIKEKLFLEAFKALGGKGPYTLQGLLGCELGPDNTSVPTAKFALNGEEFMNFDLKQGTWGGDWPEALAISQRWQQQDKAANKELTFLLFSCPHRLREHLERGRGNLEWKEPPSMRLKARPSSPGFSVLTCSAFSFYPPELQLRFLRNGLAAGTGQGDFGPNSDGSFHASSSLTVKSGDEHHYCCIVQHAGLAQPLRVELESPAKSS
T3 sequence (P61769 21-119 limits assumed, chain 2 of 2): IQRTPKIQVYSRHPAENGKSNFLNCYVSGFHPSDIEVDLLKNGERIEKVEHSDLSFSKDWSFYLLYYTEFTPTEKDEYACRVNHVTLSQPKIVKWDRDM
As to the kind of experiment: ELISA; recombinant human FcRn coated, serially diluted test article, anti-human (H+L)-HRP, 4PL fit. On the procedure: as §1
(§3) Signal was developed using TMB substrate then quenched prior to reading absorbance at 450-650 nm on a SpectraMax plate reader.

In experiment [4] the target is T4, recombinant human C1q protein (Fitzgerald) (human, UniProt P02745 23-245; P02746 28-253; P02747 29-245, limits assumed).
T4 construct: also called human recombinant complement protein, C1q
T4 sequence (P02745 23-245 limits assumed, chain 1 of 3): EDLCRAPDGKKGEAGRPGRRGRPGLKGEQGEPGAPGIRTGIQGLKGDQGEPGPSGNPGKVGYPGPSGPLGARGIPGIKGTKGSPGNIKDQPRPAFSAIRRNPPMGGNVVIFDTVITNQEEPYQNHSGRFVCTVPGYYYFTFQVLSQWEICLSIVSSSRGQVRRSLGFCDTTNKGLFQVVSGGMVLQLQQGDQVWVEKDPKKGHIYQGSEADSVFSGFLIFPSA
T4 sequence (P02746 28-253 limits assumed, chain 2 of 3): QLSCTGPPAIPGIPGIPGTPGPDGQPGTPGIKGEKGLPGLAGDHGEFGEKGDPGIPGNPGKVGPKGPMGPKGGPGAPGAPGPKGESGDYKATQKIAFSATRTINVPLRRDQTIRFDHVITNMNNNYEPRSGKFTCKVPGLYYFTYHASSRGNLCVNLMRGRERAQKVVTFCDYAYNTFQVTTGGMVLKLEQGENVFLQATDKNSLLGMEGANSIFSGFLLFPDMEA
T4 sequence (P02747 29-245 limits assumed, chain 3 of 3): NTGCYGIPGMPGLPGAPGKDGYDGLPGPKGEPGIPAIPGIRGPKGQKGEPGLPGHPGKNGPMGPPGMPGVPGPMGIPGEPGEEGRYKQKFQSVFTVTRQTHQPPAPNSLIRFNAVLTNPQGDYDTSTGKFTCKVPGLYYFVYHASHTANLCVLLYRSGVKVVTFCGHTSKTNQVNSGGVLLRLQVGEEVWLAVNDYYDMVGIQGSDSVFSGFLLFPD
Put plainly: ELISA, test article immobilized, C1q added; text: devoid of C1q binding ability.

Experiment [5] has as its target T1, his-tagged recombinant human Flt3 …. As to the kind of experiment: ELISA; His-tagged recombinant human Flt3 on nickel plate, serially diluted Flt3L-Fc, anti-human (H+L)-HRP, 4PL fit.
From the text: Graph is a result of one experiment.
as §2
The source holds these as a separate data set.

Experiment [6] has as its target T2, human FLT3 on the AML5 cell line. As to the kind of experiment: cell-based or functional assay. This is another data set of the same source.
The target of experiment [7] is T3, recombinant human FcRn. Put plainly: ELISA; recombinant human FcRn coated, serially diluted test article, anti-human (H+L)-HRP, 4PL fit; estimate, no saturating signal. On the procedure:
as §1, §3

Experiment [8] has as its target T2, human FLT3 on the AML5 cell line. Put plainly: cell-based or functional assay. The source holds these as a separate data set.
The target is the same in experiment [9]. As to the kind of experiment: cell-based or functional assay. The source holds these as a separate data set.
For experiment [10] the target is unchanged. As to the kind of experiment: cell-based or functional assay. This is another data set of the same source.
Experiment [11] has the same target. As to the kind of experiment: cell-based or functional assay. This is another data set of the same source.

Changes are numbered by the printed parent chain. In names and notes the source's numbering stands. Where two headings read alike, the source gives them in different places.

B1: human FLT3-ligand human hingeless IgG1 fusion protein (SEQ ID NO:1) (Fc fusion)
chain: TQDCSFQHSPISSDFAVKIRELSDYLLQDYPVTVASNLQDEELCGGLWRLVLAQRWMERLKTVAGSKMQGLLERVNTEIHFVTKCAFQPPPSCLRFVQTNISRLLQETSEQLVALKPWITRQNFSRCLELQCQPDSSTLPPPWSPRPLEATAPTAPQGGPSVFLFPPKPKDTLMISRTPEVTCVVVDVSHEDPEVKFNWYVDGVEVHNAKTKPREEQYNSTYRVVSVLTVLHQDWLNGKEYKCKVSNKALPAPIEKTISKAKGQPREPQVYTLPPSREEMTKNQVSLTCLVKGFYPSDIAVEWESNGQPENNYKTTPPVLDSDGSFFLYSKLTVDKSRWQQGNVFSCSVMHEALHNHYTQKSLSLSPGK
notes: also called FLT3L ECD-hingeless hG1; hFLT3L ECD
For B1, the concentration for a half-maximal effect (EC50) in experiment [1] was 0.81 nM; with recombinant human FcRn [3], 2330 nM; in experiment [5] it was 0.12 nM; with recombinant human FcRn [7] it was roughly 151 nM. In addition, the “EC50 (nM), AML5 proliferation” value in experiment [2] stood at 0.08 nM; in experiment [6], 0.078 nM; in experiment [8], 0.05 nM; in experiment [9] it was 0.034 nM; in [10], 0.04 nM. Besides, in [4], the binding result is “no binding (tested: 94 nM (highest of the titration))”.

B2: human FLT3-ligand human IgG1 fusion protein (SEQ ID NO:21) (Fc fusion)
chain: B1 chain with L273K, T288S, P317V, F327R, Y329A, K331Y
Turning to B2, the “EC50 (nM), AML5 proliferation” value in experiment [10] was 0.035 nM.

B3: human FLT3-ligand (H8Y+K84E) human hingeless IgG1 fusion protein (SEQ ID NO:24) (Fc fusion)
chain: B1 chain with H8Y, K84E
As for B3, the “EC50 (nM), AML5 proliferation” value in experiment [9] amounted to 0.013 nM. In addition, the “potency in AML5 proliferation, fold against SEQ ID NO:1” value (from here on “potency … fold against SEQ ID NO:1”) in [11] is roughly 2.5 fold.

B4: human FLT3-ligand (K84E) human hingeless IgG1 fusion protein (SEQ ID NO:23) (Fc fusion)
chain: B1 chain with K84E
As for B4, the “EC50 (nM), AML5 proliferation” value in experiment [9] turned out to be 0.013 nM. Also, the “potency … fold against SEQ ID NO:1” value in [11] is roughly 2.5 fold.

B5: human FLT3-ligand (H8Y) human hingeless IgG1 fusion protein (SEQ ID NO:22) (Fc fusion)
chain: B1 chain with H8Y
Take B5: the “EC50 (nM), AML5 proliferation” value in experiment [9] is 0.014 nM. Moreover, the “potency … fold against SEQ ID NO:1” value in experiment [11] was roughly 2.5 fold.

B6: human FLT3-ligand (S128A/S151A) human hingeless IgG1 fusion protein (SEQ ID NO:5) (Fc fusion)
chain: B1 chain with S102A, S125A
notes: also called Aglyco-FLT3L ECD (S128A/S151A) hingeless hG1
Take B6: the “EC50 (nM), AML5 proliferation” value in [2] was 0.078 nM. In addition, the binding result in [4] is given as “no binding (tested: 94 nM (highest of the titration))”. In addition, the figures for the EC50 (in experiment [5]; with recombinant human FcRn [7]) were 0.11 nM and roughly 133 nM, respectively.

B7: human FLT3-ligand (Δ5 amino acid) human hingeless IgG1 fusion protein (SEQ ID NO:2) (Fc fusion)
chain: TQDCSFQHSPISSDFAVKIRELSDYLLQDYPVTVASNLQDEELCGGLWRLVLAQRWMERLKTVAGSKMQGLLERVNTEIHFVTKCAFQPPPSCLRFVQTNISRLLQETSEQLVALKPWITRQNFSRCLELQCQPDSSTLPPPWSPRPLEATAGGPSVFLFPPKPKDTLMISRTPEVTCVVVDVSHEDPEVKFNWYVDGVEVHNAKTKPREEQYNSTYRVVSVLTVLHQDWLNGKEYKCKVSNKALPAPIEKTISKAKGQPREPQVYTLPPSREEMTKNQVSLTCLVKGFYPSDIAVEWESNGQPENNYKTTPPVLDSDGSFFLYSKLTVDKSRWQQGNVFSCSVMHEALHNHYTQKSLSLSPGK
notes: also called FLT3L ECD (Δ C-term 5aa (PTAPQ)) - hingeless hG1
Turning to B7, the “EC50 (nM), AML5 proliferation” value in experiment [2] stood at 0.083 nM. In addition, the binding result in experiment [4] is listed as “no binding (tested: 94 nM (highest of the titration))”. Further, the EC50 is 0.13 nM in experiment [5] and roughly 300 nM with recombinant human FcRn [7].

B8: human FLT3-ligand (Δ10 amino acid) human hingeless IgG1 fusion protein (SEQ ID NO:7) (Fc fusion)
chain: TQDCSFQHSPISSDFAVKIRELSDYLLQDYPVTVASNLQDEELCGGLWRLVLAQRWMERLKTVAGSKMQGLLERVNTEIHFVTKCAFQPPPSCLRFVQTNISRLLQETSEQLVALKPWITRQNFSRCLELQCQPDSSTLPPPWSPRPGGPSVFLFPPKPKDTLMISRTPEVTCVVVDVSHEDPEVKFNWYVDGVEVHNAKTKPREEQYNSTYRVVSVLTVLHQDWLNGKEYKCKVSNKALPAPIEKTISKAKGQPREPQVYTLPPSREEMTKNQVSLTCLVKGFYPSDIAVEWESNGQPENNYKTTPPVLDSDGSFFLYSKLTVDKSRWQQGNVFSCSVMHEALHNHYTQKSLSLSPGK
For the molecule B8, in [2], the “EC50 (nM), AML5 proliferation” value turned out to be 0.071 nM. The binding result in [4] is on record as “no binding (tested: 94 nM (highest of the titration))”. In addition, the EC50 was 0.12 nM in [5] and roughly 158 nM with recombinant human FcRn [7].

B9: mouse FLT3-ligand mouse IgG2a (LALA-PG) fusion protein (SEQ ID NO:19) (Fc fusion)
chain: TPDCYFSHSPISSNFKVKFRELTDHLLKDYPVTVAVNLQDEKHCKALWSLFLAQRWIEQLKTVAGSKMQTLLEDVNTEIHFVTSCTFQPLPECLRFVQTNISHLLKDTCTQLLALKPCIGKACQNFSRCLEVQCQPDSSTLLPPRSPIALEATELPEPRGPTIKPCPPCKCPAPNAAGGPSVFIFPPKIKDVLMISLSPIVTCVVVDVSEDDPDVQISWFVNNVEVHTAQTQTHREDYNSTLRVVSALPIQHQDWMSGKEFKCKVNNKDLGAPIERTISKPKGSVRAPQVYVLPPPEEEMTKKQVTLTCMVTDFMPEDIYVEWTNNGKTELNYKNTEPVLDSDGSYFMYSKLRVEKKNWVERNSYSCSVVHEGLHNHHTTKSFSRTPGK
As for B9, in experiment [6], the “EC50 (nM), AML5 proliferation” value came to 0.171 nM.

B10: mouse FLT3-ligand mouse IgG2a (C136S LALA-PG) fusion protein (SEQ ID NO:20) (Fc fusion)
chain: B9 chain with C109S
As for B10, in experiment [6], the “EC50 (nM), AML5 proliferation” value was determined as 0.115 nM.
